Results taken from paper PMC4694715.

How the values were obtained:
[1] = target: CD20 (human (endogenous in Ramos)) (UniProt P11836)
[2] = target: CD20 (human (endogenous in Ramos)) (UniProt P11836); remark: listed apart in the source
[3] = target: CD20 (human (endogenous in Ramos)) (UniProt P11836); experiment: flow cytometry on cells; 1E6 Ramos cells incubated with 0.5μg (16.7nM) or 1μg (33.3nM) of the RTX variant (non-saturating amounts); bound antibody detected with FITC murine monoclonal anti human kappa light chain antibody; read-out: MFI of the variant divided by MFI of the IgG1 control

Sequence of UniProt P11836 (P11836 whole entry): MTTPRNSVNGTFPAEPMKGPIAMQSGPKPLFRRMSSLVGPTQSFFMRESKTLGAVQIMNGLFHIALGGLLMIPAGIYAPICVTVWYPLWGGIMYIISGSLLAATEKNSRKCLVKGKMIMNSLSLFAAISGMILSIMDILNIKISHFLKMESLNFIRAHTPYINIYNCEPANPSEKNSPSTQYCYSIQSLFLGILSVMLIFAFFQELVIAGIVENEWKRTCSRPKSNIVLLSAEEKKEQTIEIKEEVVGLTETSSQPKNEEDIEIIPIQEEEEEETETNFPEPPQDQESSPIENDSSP

Substance	apoptosis of Ramos cells after 24h (AnnexinV-FITC positive cells, absolute), 2000ng antibody, no crosslinker [1]	apoptosis of Ramos cells after 24h, normalised to the IgG1 control without crosslinker (100%) (% of IgG1 control) [2]	IgG1 signal ratio (MFI of RTX variant divided by MFI of IgG1 control) at 0.5μg [3]	IgG1 signal ratio (MFI of RTX variant divided by MFI of IgG1 control) at 1μg [3]
Rituximab IgG1 a1 (antibody)	11 % of cells	–	–	–
Rituximab IgG2 (antibody)	49 % of cells	546	0.37	0.42
Rituximab IgG4P (antibody)	41 % of cells	441	–	–
